These results are taken from the DeepSol protein solubility set.

The data set is described as follows: soluble on expression in E. coli; label from the status in PepcDB or PDB records.
In the case of “MSQHNEKNPHQHQSPLHDSSEAKPGMDSLAPEDGSHRPAAEPTPPGAQPTAPGSLKAPDTRNEKLNSLEDVRKGSENYALTTNQGVRIADDQNSLRAGSRGPTLLEDFILREKITHFDHERIPERIVHARGSAAHGYFQPYKSLSDITKADFLSDPNKITPVFVRFSTVQGGAGSADTVRDIRGFATKFYTEEGIFDLVGHNTPIFFIQDAHKFPDFVHAVKPEPHWAIPQGQSAHDTFWDYVSLQPETLHNVMWAMSDRGIPRSYRTMEGFGIHTFRLINAEGKATFVRFHWKPLAGKASLVWDEAQKLTGRDPDFHRRELWEAIEAGDFPEYELGFQLIPEEDEFKFDFDLLDPTKLIPEELVPVQRVGKMVLNRNPDNFFAENEQAAFHPGHIVPGLDFTNDPLLQGRLFSYTDTQISRLGGPNFHEIPINRPTCPYHNFQRDGMHRMGIDTNPANYEPNSINDNWPRETPPGPKRGGFESYQERVEGNKVRERSPSFGEYYSHPRLFWLSQTPFEQRHIVDGFSFELSKVVRPYIRERVVDQLAHIDLTLAQAVAKNLGIELTDDQLNITPPPDVNGLKKDPSLSLYAIPDGDVKGRVVAILLNDEVRSADLLAILKALKAKGVHAKLLYSRMGEVTADDGTVLPIAATFAGAPSLTVDAVIVPCGNIADIADNGDANYYLMEAYKHLKPIALAGDARKFKATIKIADQGEEGIVEADSADGSFMDELLTLMAAHRVWSRIPKIDKIPA”, the “soluble on expression in E. coli” value is reported as “soluble”.
As for “MGSDKIHHHHHHMKFSLGPSLFFWPKNEVVDFYQQAKESSADVIYLGETVCSKRRELRAKDWLGLAQDVAQDTNKQVVVSTMTLLESPAEIQVLKRLCDNGEFLVEANDLSAVQIMHELKMPFVAGPAINCYNLSTLKVLLKQGMTRWLMPVELSGDWLKILLEQATEAGIRQQFECEVFSWGYLPLAYSARCFTARSEDKAKDDCEYCCIKYPEGRRMNSREGERVFVLNGIQTLSGYQYNLINEMPALDAMGVDIARISADSTEAFTQLDNFREQLVNPTRKELDGVTECNGFWHKIAGMSVA”, the “soluble on expression in E. coli” value is “not soluble”.
Then “MSLGNTGVASADYLTAPFYNPALVASFEEHDDFGLLLPAIGVNVRDSDESLATIDDLQDSIDEFEAAPIPSPGQIDQLNRYLDDLQGNAPLTASSSLGLAVAIPTKRFSTNLFARGYLELIARPNIADYLSTGPGNEVADTKKRYEDSSVTMAAFGYVEYGAALAKEFEIKEQRISFGVTPKIQQLTTYYVVPTVADFELDDYEESEHKESAFNLDFGVVWLKDKFQVALAVKDLLSQEIDLKDKNGQKQDVYELNTQVSAGVAYRSDFFTAAMDLDLTKQERFKSLDDETQFVRFGVEGNAWGWAQLRAGYEIDLEDTVENAFTAGIGISPFDVVSLDIAGSYAGENQFGVSGNLAFTFEGHHHHHH”, with “not soluble”; and “MVFDPRTLDNPKEISAYRDQRYQGTVRDQETALRTSCTLYVGNLSYYTKEDQVYELFGRAGDVRRVIMGLDRFKKTPCGFCFVEYYTREDAELALQNISNTRMDDRVIRADWDAGFIEGRQYGRGKHGGQVRDEYRKDYDPERGGYNRAIAQKG”, with “not soluble”; and “MASEMIVDHRQKAFELLKVDAEKILKLIRVQMDNLTMPQCPLYEEVLDTQMFGLSREIDFAVRLGLVDEKDGKDLLYTLERELSALHDAFTAK”, with “soluble”.
Then “MGSDKIHHHHHHMNEQFERLMVRVESLMARIESVLPQPLSAPDWTASVAYRYRKRGSGHGSLEPVRHLGAMRLTDLKEIDGQKDRIRRNTEQFVSGKPANNVLLTGSRGTGKSSLIKACLNEYSARGLRLIEVDKADLTDLPDIVDVVSGLPEKFIVFCDDLSFEEGEPGYKALKSILDGSIAAATPNVLIYATSNRRHLLPEYMMENLTYTHTEDGEVHPGEVVEEKISLSERFGLWVSFYPFSQDEYLTIVAQWLSSFGVNAEAISAARPASLVWALERGSRSGRVAYQFARDYAGQHAGTVQ”, with “not soluble”; and “MTQTTQSPALIASQSSWRCVQAHDREGWLALMADDVVIEDPIGKSVTNPDGSGIKGKEAVGAFFDTHIAANRLTVTCEETFPSSSPDEIAHILVLHSEFDGGFTSEVRGVFTYRVNKAGLITNMRGYWNLDMMTFGNQE”, with “soluble”.
“MGSDKIHHHHHHMNLPLQGIKVVELGQLIAGPFAAKILAEFGAEVIKVEPPLTGDPLRKWRLLHNGTSVWWAVQSRNKQSVTLDLRQPQAQEMVRRLIRDADVLVENFRPGTLEGWGLSWEDLHALNPKLIMLRVSGYGQTGPYRDRPGFGVIGEAMGGLRHLSGEVGRTPVRVGVSIGDSLAALHGVIGILLALRHREQNAGEGQQIDVALYESVFNMMESLIPEYSVFNTVREPAGSSLPGIAPTNAYRCNDGKYALIAGNGDSIYRRLMEKIGRPDLANDPQLEHNDGRVRHVARIDAAISTWTAERSLDDVLAALTDARIPAGKIYDAADIASDPHYQARDMLLQSALDDGTPVTVPGIVPKLQDTPGQIRSPAPTLGQHTDAVLQAHGIDAATREEWRRLGII”: the “soluble on expression in E. coli” value was “not soluble”.
In the case of “MGFFSRDIQTMEDLLLHGLRDIYYAEQQITKALPKMIEQATNRDLSQGLTSHLEETQKQIERLDQVFKKLGQKPSGVNCPAIDGLIKEADETAGEIADKTVLDAAIVANAQAVEHYEIARYGTLIAWAEELGHDDIVRFLTTNLNEEKAANTKLNTVALRKGVNRKAAS”, the “soluble on expression in E. coli” value is “soluble”.
In the case of “MSLVDHVHFERELTLLKSDVSKMLFLVSESLNDAIESLETMNETLARKVLESDDMIDELNREIEEKAYQIIARYNPILKQLRYIITILKFSNDLERIGDLSCNIAEKCLFLSEEKIKFEMLKELKDMFGSTLKVVQDAFKAFVEEDVDLAFRLWKFDDVIDEMEKKIRRIVVERIREGNISAELALVYILIARDLERVGDHANNLCEEVIYIETGKNMKEFLRGVESGSEGADSEGGSHHHHHH”, the “soluble on expression in E. coli” value is on record as “soluble”.
Turning to “MAHHHHHHMEAPAVYCVSDAAASLTMADDWIRGLSRQRHRSMCEVDAVFPVSRTRERTEMDEAETASSYSDSVTSVPTNRLQLHMMHRRRLYKQYAMDLSMWADTHSYYQLMMWCHDHHVFVHPTVEMVRHRSAFREHVFEVKEDVDAFTPLLAIPEDLIIGFKDANTESSDPSASTDDRNNLYDAKREAEFHKLNTGENSNADICQFFFASLGMIVSDLITAKSSPLTDPRHLFAELLSKVPTLQNAPYFDEEVVFDSNETCLADVLLQMIRNYINGGPLVNKVPLHELRWAVSVSLSHSTPLSIGAVRSIGIVPVVHLFPHGGTATNAYVVARTSRDKSAEKMAIFFREKFGYDFQGQANAKWIYVVPERPLKAGEAINLQVMAPVCEKDSEAEQMWRLSCGTVPESYMSSAQASARQEAATRFIVEQGEALWKASRAKRLL”, the “soluble on expression in E. coli” value is listed as “not soluble”.
With “MSDKDDLIVAGVNQKDKGIWRDFYDRYYAALCSYVEKILFLTDAVEDLVQEVFISVWEGKRTFSDSRELTNYLYRACYNNALLYIRNHQIHDSILNGLPQEEDFEDEEMLYALTVKEEAIRQLYFYIEELPAEQRRIILLRIEGHSWDEIASRLGVSINTVKTQKSRSYKFLREKLANSSYSVLLALIFY”, the “soluble on expression in E. coli” value is recorded as “not soluble”.
Then “MAENKTINKEQNRTENNEIVIMNFSGIYKEQQFYRNHAEMQEDISWLEVQDLPGSNCYCDEEAKNRILDDIKNYTGNGIHFIDSGNYHYVSRLWLSKMEHPFRLLVFDNHTDMQLPAFGGLLSCGGWIAASLEEVPMLQEVILVGPDEEAYMQVEPEFQQKVQFLSREKLLAMTGEEKNTFFRNLRADLPMYISVDKDVLCTADASTTWSQGDMSLEKLQKFLEIVLQQQQILGMDICGECDPDACERNLLNDRANQKLLELWKKYFPQIRERRQDI”, with “not soluble”; and “MEKVGEDEEKTIEEANNSTEETKSDKEEERIKGTIADQVDPVDSTEEGSTGPSNSHTVVSKDHDFSESDMEDEEQVLEFFRRNHGFSPEVTKRNNFPYVNNSERMVLQFQEDTSAETEQTNEMFHSLNDSNEILEGTKSSSASDEDTEDSSSNSDLDSSLSRYYFDGSLPVSAHVEEFETHQDESLVPKDENQVCNPNWWGMI”, with “not soluble”.
For “MMGCMMIYNPKQLANHLKLIRTKHNLTQTELAKKVGVKQSTLSSFENHPETTQLQTLFKILHALEVHCIIQEQVPASHEDNLDDEAW”, the “soluble on expression in E. coli” value is “not soluble”.
